For 1 molecule, Kd results are on record in article PMC6862464, “Structural Insights into AQP2 Targeting to Multivesicular Bodies” (International Journal of Molecular Sciences, 2019).

What all share (assay): other fluorescence titration; Alexa 488-labeled, dephosphorylated AQP2 (around 1 uM) in the cuvette, titrated with unlabeled LIP5; total fluorescence; 20 mM Tris-HCl pH 8, 300 mM NaCl, 0.2% OGNG; triplicate titrations
Settings in all cases: both partners purified

The target in test [1] is T1, full-length human LIP5 K71A (human, UniProt Q9NP79 1-307, K71A).
T1 construct: LIP5, human, full length, point mutant; spacer before the TEV site and His tag, as in m2; Mutant of m2; dimer as said of full-length LIP5 (cited); source: E. coli BL21*(DE3), purified (HisTrap, SEC)
T1 sequence: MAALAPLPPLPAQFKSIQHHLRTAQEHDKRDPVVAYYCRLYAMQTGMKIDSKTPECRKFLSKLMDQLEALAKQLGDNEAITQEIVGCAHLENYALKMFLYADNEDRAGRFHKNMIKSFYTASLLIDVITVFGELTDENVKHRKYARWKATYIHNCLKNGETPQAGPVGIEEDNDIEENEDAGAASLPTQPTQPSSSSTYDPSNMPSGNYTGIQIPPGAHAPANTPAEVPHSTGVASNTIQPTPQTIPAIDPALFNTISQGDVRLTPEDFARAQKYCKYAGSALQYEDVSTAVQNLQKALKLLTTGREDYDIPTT

Test [2] has as its target T2, full-length human LIP5 M47A (human, UniProt Q9NP79 1-307, M47A).
T2 construct: LIP5, human, full length, point mutant; spacer before the TEV site and His tag, as in m2; Mutant of m2; dimer as said of full-length LIP5 (cited); source: E. coli BL21*(DE3), purified (HisTrap, SEC)
T2 sequence: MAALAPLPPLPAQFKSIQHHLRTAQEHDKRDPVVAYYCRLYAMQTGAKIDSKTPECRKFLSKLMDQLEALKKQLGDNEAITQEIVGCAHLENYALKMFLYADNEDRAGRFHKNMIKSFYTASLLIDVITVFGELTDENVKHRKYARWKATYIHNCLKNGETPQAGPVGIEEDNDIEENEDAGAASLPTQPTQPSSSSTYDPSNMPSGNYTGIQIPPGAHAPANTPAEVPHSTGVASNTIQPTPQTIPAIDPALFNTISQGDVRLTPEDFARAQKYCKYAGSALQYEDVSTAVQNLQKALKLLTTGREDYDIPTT

For test [3], the target named is T3, full-length human LIP5 M64A (human, UniProt Q9NP79 1-307, M64A).
T3 construct: LIP5, human, full length, point mutant; spacer before the TEV site and His tag, as in m2; Mutant of m2; dimer as said of full-length LIP5 (cited); source: E. coli BL21*(DE3), purified (HisTrap, SEC)
T3 sequence: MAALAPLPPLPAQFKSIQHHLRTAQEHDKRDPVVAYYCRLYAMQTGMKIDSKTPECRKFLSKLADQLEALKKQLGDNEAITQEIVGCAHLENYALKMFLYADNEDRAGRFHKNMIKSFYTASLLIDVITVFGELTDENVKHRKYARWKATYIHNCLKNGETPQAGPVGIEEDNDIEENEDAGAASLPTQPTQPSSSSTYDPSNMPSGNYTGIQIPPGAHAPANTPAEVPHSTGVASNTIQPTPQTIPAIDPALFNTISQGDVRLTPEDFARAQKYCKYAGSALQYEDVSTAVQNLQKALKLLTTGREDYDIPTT

The target of test [4] is T4, full-length human LIP5 D65A (human, UniProt Q9NP79 1-307, D65A).
T4 construct: LIP5, human, full length, point mutant; spacer before the TEV site and His tag, as in m2; Mutant of m2; dimer as said of full-length LIP5 (cited); source: E. coli BL21*(DE3), purified (HisTrap, SEC)
T4 sequence: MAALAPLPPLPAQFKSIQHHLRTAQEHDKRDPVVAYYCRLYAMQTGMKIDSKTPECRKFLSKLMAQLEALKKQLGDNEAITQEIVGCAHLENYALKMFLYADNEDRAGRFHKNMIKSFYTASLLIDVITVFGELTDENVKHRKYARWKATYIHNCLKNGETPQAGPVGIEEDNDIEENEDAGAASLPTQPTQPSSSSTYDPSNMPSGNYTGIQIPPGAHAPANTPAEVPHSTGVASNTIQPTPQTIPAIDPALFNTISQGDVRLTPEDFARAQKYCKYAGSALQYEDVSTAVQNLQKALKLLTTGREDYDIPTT

The target of test [5] is T5, full-length human LIP5 L67A (human, UniProt Q9NP79 1-307, L67A).
T5 construct: LIP5, human, full length, point mutant; spacer before the TEV site and His tag, as in m2; Mutant of m2; dimer as said of full-length LIP5 (cited); source: E. coli BL21*(DE3), purified (HisTrap, SEC)
T5 sequence: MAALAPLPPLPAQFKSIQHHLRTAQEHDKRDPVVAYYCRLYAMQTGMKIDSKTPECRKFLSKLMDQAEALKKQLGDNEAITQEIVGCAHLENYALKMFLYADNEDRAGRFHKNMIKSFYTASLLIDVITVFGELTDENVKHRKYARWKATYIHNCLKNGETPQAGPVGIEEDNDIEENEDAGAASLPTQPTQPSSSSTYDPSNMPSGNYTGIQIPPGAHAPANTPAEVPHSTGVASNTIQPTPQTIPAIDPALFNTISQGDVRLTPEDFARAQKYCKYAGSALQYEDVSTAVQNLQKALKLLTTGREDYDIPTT

The target in test [6] is T6, full-length human LIP5 E68A (human, UniProt Q9NP79 1-307, E68A).
T6 construct: LIP5, human, full length, point mutant; spacer before the TEV site and His tag, as in m2; Mutant of m2; dimer as said of full-length LIP5 (cited); source: E. coli BL21*(DE3), purified (HisTrap, SEC)
T6 sequence: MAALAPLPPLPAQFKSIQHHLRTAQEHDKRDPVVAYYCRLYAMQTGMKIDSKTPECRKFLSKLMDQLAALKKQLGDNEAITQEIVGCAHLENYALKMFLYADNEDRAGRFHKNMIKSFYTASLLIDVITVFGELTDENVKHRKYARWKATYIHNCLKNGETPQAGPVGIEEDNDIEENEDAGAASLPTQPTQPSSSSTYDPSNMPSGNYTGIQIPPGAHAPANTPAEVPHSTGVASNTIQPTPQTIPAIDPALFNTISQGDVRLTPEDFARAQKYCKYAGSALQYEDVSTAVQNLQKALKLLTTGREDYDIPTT

B1: human aquaporin 2 (AQP2), wild-type (natural protein, UniProt P41181 1-271, looked up)
chain: MWELRSIAFSRAVFAEFLATLLFVFFGLGSALNWPQALPSVLQIAMAFGLGIGTLVQALGHISGAHINPAVTVACLVGCHVSVLRAAFYVAAQLLGAVAGAALLHEITPADIRGDLAVNALSNSTTAGQAVTVELFLTLQLVLCIFASTDERRGENPGTPALSIGFSVALGHLLGIHYTGCSMNPARSLAPAVVTGKFDDHWVFWIGPLVGAILGSLLYNYVLFPPAKSLSERLAVLKGLEPDTDWEEREVRRRQSVELHSPQSLPRGTKA
modifications: cysteine residues labeled with C5 maleimide Alexa 488; dephosphorylated with alkaline phosphatase before labeling
notes: concentrations and molar ratios seem to count monomers; His-tag is called uncleavable; also called WT; labeled AQP2; source: Pichia pastoris, purified (HisTrap, SEC) in OGNG; not shown: His-tag, N-terminal, kept
On to B1, for which the Kd in test [1] was determined as 137 nM; in test [2] it was 463 nM; in test [3] it was 271 nM; in test [4] it was 149 nM; in test [5], 298 nM; in test [6], 243 nM.
